{"source": "paper PMC1475855", "test_in_all_cases": "SEC; FPLC of native protein with His-tag cleaved; HiLoad-16/60 Superdex200, 1 x PBS, 4°C, 1 ml/min; column calibrated with catalase, aldolase, chymotrypsinogen A and ribonuclease A", "key": {"[1]": {"target": "GFP from the orange seapen Ptilosarcus gurneyi (Pt-GFP) (Ptilosarcus gurneyi)"}, "[2]": {"target": "ratiometric pHluorin (Aequorea victoria)"}, "[3]": {"target": "ecliptic pHluorin (Aequorea victoria)"}}, "data": [{"substance": "GFP from the orange seapen Ptilosarcus gurneyi (Pt-GFP) (natural protein)", "values": [{"measurement": "stoichiometry N", "setting": "[1]", "value": 4}]}, {"substance": "ratiometric pHluorin", "values": [{"measurement": "stoichiometry N", "setting": "[2]", "value": 2}]}, {"substance": "ecliptic pHluorin", "values": [{"measurement": "stoichiometry N", "setting": "[3]", "value": 2}]}]}
